Measurements published in US20250376519A1 (JIANGSU HENGRUI PHARMACEUTICALS, published 2025).
Where a chain is given by its changes, count along the chain named.

Experiments:
[1] = target: T1, human DLL3 (ACRO, DLL3-H52H4) (human, UniProt Q9NYJ7 27-492); assay: SPR Biacore 8K, Ab captured on Protein A
T1 construct: Bought
T1 sequence: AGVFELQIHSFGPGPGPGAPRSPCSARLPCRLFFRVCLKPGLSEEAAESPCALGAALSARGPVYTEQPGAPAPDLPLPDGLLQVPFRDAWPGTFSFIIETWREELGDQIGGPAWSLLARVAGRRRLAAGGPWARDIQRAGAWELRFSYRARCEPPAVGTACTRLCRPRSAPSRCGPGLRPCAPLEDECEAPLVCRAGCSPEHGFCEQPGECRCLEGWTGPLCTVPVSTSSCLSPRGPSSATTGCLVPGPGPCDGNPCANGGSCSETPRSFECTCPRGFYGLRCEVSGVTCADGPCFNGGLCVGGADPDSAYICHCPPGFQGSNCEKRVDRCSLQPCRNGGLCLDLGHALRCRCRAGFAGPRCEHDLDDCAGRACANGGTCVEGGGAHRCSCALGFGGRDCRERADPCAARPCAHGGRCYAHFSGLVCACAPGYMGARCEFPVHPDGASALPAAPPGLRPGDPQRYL
From the text: Test antibodies were affinity-captured with a Protein A biosensor chip (Cat. #29127556, Cytiva) for 18 seconds, and then the antigens human DLL3 (ACRO, DLL3-H52H4), cynomolgus monkey DLL3 (KACTUS, DLL-RM103), mouse DLL3 (KACTUS, DLL-MM103), human CD3D&3E (ACRO, CDD-H52W1), and monkey CD3D&3E (ACRO, CDD-C52W4) were allowed to flow through the surface of the chip for 180 seconds, followed by 600 seconds of dissociation. Reaction signals were detected in real time using a Biacore 8K (Cytiva) instrument to obtain association and dissociation curves. After the dissociation in each experimental cycle, the chip was washed and regenerated with a 10 mM glycine-hydrochloric acid solution (pH 1.5, Cat. #BR-1003-54, Cytiva). Data fitting was performed using a 1:1 Model.

[2] = target: T2, human DLL3 on cells (human, UniProt Q9NYJ7 27-618); assay: flow cytometry, DLL3/H82 cells; design: key to Emax: geometric mean fluorescence intensity (flow cytometry)
T2 construct: Endogenous on H1184 and SHP77; Cell line is named under assay; also called H1184; DLL3/H82
T2 sequence: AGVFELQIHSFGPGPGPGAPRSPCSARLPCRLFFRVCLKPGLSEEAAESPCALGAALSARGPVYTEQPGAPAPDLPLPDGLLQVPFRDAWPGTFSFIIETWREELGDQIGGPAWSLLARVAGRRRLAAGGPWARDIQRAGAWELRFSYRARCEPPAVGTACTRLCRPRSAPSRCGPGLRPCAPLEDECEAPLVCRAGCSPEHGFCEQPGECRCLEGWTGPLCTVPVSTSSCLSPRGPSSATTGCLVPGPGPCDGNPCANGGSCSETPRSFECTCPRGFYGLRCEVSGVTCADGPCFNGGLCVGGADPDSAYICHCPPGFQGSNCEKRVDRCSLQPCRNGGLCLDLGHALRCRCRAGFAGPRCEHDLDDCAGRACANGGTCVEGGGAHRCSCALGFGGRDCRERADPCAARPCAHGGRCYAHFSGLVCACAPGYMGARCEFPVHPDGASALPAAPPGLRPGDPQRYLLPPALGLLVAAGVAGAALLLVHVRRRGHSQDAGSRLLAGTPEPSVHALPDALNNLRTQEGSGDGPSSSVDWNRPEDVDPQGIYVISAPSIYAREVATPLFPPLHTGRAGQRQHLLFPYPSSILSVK
Description: The plates were centrifuged at 300 g for 5 min, and the supernatant was removed. Different concentrations of test antibodies were added at 100 μL/well. The plates were incubated in the dark in a refrigerator at 4° C. for 1 h. After 3 centrifugal washes at 300 g, working concentrations of APC anti-human IgG Fc (BioLegend, 410712) or PE F(ab′)2-goat anti-human IgG (invitrogen, H10104) were added. The plates were incubated in the dark in a refrigerator at 4° C. for 40 min. After 3 centrifugal washes at 300 g, the geometric mean fluorescence intensity was measured on an Invitrogen flow cytometer, and the EC50 values for the binding of the antibodies to DLL3-expressing cells were calculated.

B1: hu30L2H2 (antibody, human IgG1, kappa)
heavy: not shown
light: DIVMTQSPDSLAVSLGERATINCKASENVGYVSWYQQKPGQPPKLLIYGASNRYTGVPDRFSGSGSATDFTLTISSLQAEDVAVYHCGQSYSYPLTFGQGTKLEIKRTVAAPSVFIFPPSDEQLKSGTASVVCLLNNFYPREAKVQWKVDNALQSGNSQESVTEQDSKDSTYSLSSTLTLSKADYEKHKVYACEVTHQGLSSPVTKSFNRGEC
[1]
  Kd: 1.01 nM
  koff: 0.000921 s⁻¹
  kon: 914000 M⁻¹ s⁻¹
[2]
  EC50: 0.61 nM
  Emax: 4910

B2: hu30L1H7 (antibody, human IgG1, kappa)
heavy: not shown
light: B1 light with A67G, H86Y
[1]
  Kd: 1.16 nM
  koff: 0.00115 s⁻¹
  kon: 985000 M⁻¹ s⁻¹

B3: hu30L1H11 (antibody, human IgG1, kappa, V domains shown)
VH: EVRLVQFGAVVKKPGASVKVSCKASGYTFTDYYMNWVRQAPGQSLEWMGIINPYTGDTSYNQKFRGRVTLTVDKSSSTAYMELSSLTSEDTAVYYCARYHYGPHLEGYFDVWGQGTTVTVSS
VL: DIVMTQSPDSLAVSLGERATINCKASENVGYVSWYQQKPGQPPKLLIYGASNRYTGVPDRFSGSGSGTDFTLTISSLQAEDVAVYYCGQSYSYPLTFGQGTKLEIKR
[1]
  Kd: 2.83 nM
  koff: 0.00117 s⁻¹
  kon: 414000 M⁻¹ s⁻¹

B4: hu30L1H9 (antibody, human IgG1, kappa, V domains shown)
VH: B3 VH with F7S, V10E, M48I, V68A, S76A, T87R
VL: B3 VL
[1]
  Kd: 2.34 nM
  koff: 0.000981 s⁻¹
  kon: 419000 M⁻¹ s⁻¹

B5: hu6L1H1 (antibody, human IgG1, kappa, V domains shown)
VH: EVQLVQSGAEVKKPGASVKVSCKASGYTFTDYYMNWVRQAPGQRLEWMGIINPYSGVTIYNHKFKGRVTITVDKSASTAYMELSSLRSEDTAVYYCARQDSLLDYAMDYWGQGTTVTVSS
VL: DIQMTQSPSSLSASVGDRVTITCHASQGISGNMGWLQQKPGKAPKGLIYHGANLEDGVPSRFSGSGSGTDFTLTISSLQPEDFATYYCVQYAQFPYTFGGGTKVEIKR
[1]
  Kd: 2.81 nM
  koff: 0.00225 s⁻¹
  kon: 798000 M⁻¹ s⁻¹

B6: hu6L4H6 (antibody, human IgG1, kappa, V domains shown)
VH: EVQLVQSGSELKKPGASVKVSCKASGYTFTDYYMNWVRQAPGQGLEWMGIINPYSGVTIYNHKFKGRFVLSVDKSSNTAYLQISSLKAEDTAVYYCARQDSLLDYAMDYWGQGTTVTVSS
VL: B5 VL with T69A, F71Y, T85D
[1]
  Kd: 0.424 nM
  koff: 0.000811 s⁻¹
  kon: 1.91e+06 M⁻¹ s⁻¹

B7: hu6L2H3 (antibody, human IgG1, kappa, V domains shown)
VH: B5 VH with M48I, V68A, I70L, S77N
VL: B5 VL with T69A, F71Y
[1]
  Kd: 2.01 nM
  koff: 0.00139 s⁻¹
  kon: 695000 M⁻¹ s⁻¹

B8: hu6L2H1 (antibody, human IgG1, kappa, V domains shown)
VH: B5 VH
VL: B5 VL with T69A, F71Y
[1]
  Kd: 2.19 nM
  koff: 0.00155 s⁻¹
  kon: 709000 M⁻¹ s⁻¹

B9: hu6L3H1 (antibody, human IgG1, kappa, V domains shown)
VH: B5 VH
VL: B5 VL with A43S, P44F, T69A, F71Y
[1]
  Kd: 2.02 nM
  koff: 0.00144 s⁻¹
  kon: 715000 M⁻¹ s⁻¹

B10: hu6L1H2 (antibody, human IgG1, kappa, V domains shown)
VH: B5 VH with I70L, S77N
VL: B5 VL
[1]
  Kd: 2.19 nM
  koff: 0.00173 s⁻¹
  kon: 787000 M⁻¹ s⁻¹

B11: hu6L3H3 (antibody, human IgG1, kappa, V domains shown)
VH: B5 VH with M48I, V68A, I70L, S77N
VL: B5 VL with A43S, P44F, T69A, F71Y
[1]
  Kd: 1.88 nM
  koff: 0.00135 s⁻¹
  kon: 718000 M⁻¹ s⁻¹

B12: hu6L3H2 (antibody, human IgG1, kappa, V domains shown)
VH: B5 VH with I70L, S77N
VL: B5 VL with A43S, P44F, T69A, F71Y
[1]
  Kd: 1.59 nM
  koff: 0.00114 s⁻¹
  kon: 716000 M⁻¹ s⁻¹

B13: hu6L1H3 (antibody, human IgG1, kappa, V domains shown)
VH: B5 VH with M48I, V68A, I70L, S77N
VL: B5 VL
[1]
  Kd: 2.76 nM
  koff: 0.00224 s⁻¹
  kon: 812000 M⁻¹ s⁻¹

B14: hu30L4H10 (antibody, human IgG1, kappa, V domains shown)
VH: B3 VH with F7S, V10E, A40S, P41H, S76A, T87R
VL: DIQMTQSPSSLSASVGDRVTITCKASENVGYVSWYQQKPGKAPKLLIYGASNRYTGVPSRFSGSGSGTDFTLTISSLQPEDFATYYCGQSYSYPLTFGQGTKLEIKR
[1]
  Kd: 2.16 nM
  koff: 0.000919 s⁻¹
  kon: 427000 M⁻¹ s⁻¹

B15: hu30L5H10 (antibody, human IgG1, kappa, V domains shown)
VH: B3 VH with F7S, V10E, A40S, P41H, S76A, T87R
VL: B14 VL with A42S, S59D, Q99S
[1]
  Kd: 2.05 nM
  koff: 0.000949 s⁻¹
  kon: 464000 M⁻¹ s⁻¹

B16: hu30L5H11 (antibody, human IgG1, kappa, V domains shown)
VH: B3 VH
VL: B14 VL with A42S, S59D, Q99S
[1]
  Kd: 3.06 nM
  koff: 0.0012 s⁻¹
  kon: 391000 M⁻¹ s⁻¹

B17: hu30L5H8 (antibody, human IgG1, kappa, V domains shown)
VH: B3 VH with T87R
VL: B14 VL with A42S, S59D, Q99S
[1]
  Kd: 2.54 nM
  koff: 0.00102 s⁻¹
  kon: 400000 M⁻¹ s⁻¹

B18: M98CH1 (antibody, human IgG1, kappa, V domains shown)
VH: EVQLVESGGGLVKPGGSLKLSCAASGFTFSDYGIHWVRQAPEKGLEWVAYISSGGYTIYYADTVKGRFTISRDNAKNTLFLQMTSLRSEDTAMYYCARGDYDDIFYTMDYWGQGTSVTVSS
VL: DIQMTQTTSSLSASLGDRVTISCRASRDITKFLNWYQQKPDGTVKLLIYYTSRLHSGVPSRFSGSGSGTDYSLTISNLDQEDIATYFCQQGNTLPWTFGGGTKLDIKR
notes: chimeric antibody of mAb98, human IgG1/kappa; also called M98CHI
[1]
  Kd: 0.429 nM
  koff: 0.000682 s⁻¹
  kon: 1.59e+06 M⁻¹ s⁻¹

B19: hu98L1H2 (antibody, human IgG1, kappa, V domains shown)
VH: B18 VH with K13Q, K19R, E42G, T78S, F80Y, T84N, S88A, M93V, D102E, S116T
VL: DIQMTQSPSSLSASVGDRVTITCRASRDITKFLNWYQQKPGKAPKLLIYYTSRLHSGVPSRFSGSGSGTDFTLTISSLQPEDFATYYCQQGNTLPWTFGGGTKVEIKR
[1]
  Kd: 1.97 nM
  koff: 0.00307 s⁻¹
  kon: 1.56e+06 M⁻¹ s⁻¹

B20: M6CH1 (antibody, human IgG1, kappa, V domains shown)
VH: EVQLQQSGPVLVKPGASVKMSCKASGYTFTDYYMNWVKQSHGKSLEWIGIINPYSGVTIYNHKFKGKATLTVDKSSNTAYMELNSLTSEDSAVYYCARQDSLLDYAMDYWGQGTSVTVSS
VL: DILMTQSPSSMSVSLGDTVSITCHASQGISGNMGWLQQKPGKSFKGLIYHGANLEDGVPSRFSGSGSGADYSLTISSLESEDFADYYCVQYAQFPYTFGGGTKLEIKR
notes: chimeric antibody of mAb6, human IgG1/kappa; also called M6CHI
[1]
  Kd: 0.681 nM
  koff: 0.000657 s⁻¹
  kon: 965000 M⁻¹ s⁻¹
